Source: US20250368745A1 (published 2025)

T1: human IL-18BP (human, UniProt O95998 31-194)
T1 construct: UniProt printed as 095998; also called hIL-18BP
T1 sequence: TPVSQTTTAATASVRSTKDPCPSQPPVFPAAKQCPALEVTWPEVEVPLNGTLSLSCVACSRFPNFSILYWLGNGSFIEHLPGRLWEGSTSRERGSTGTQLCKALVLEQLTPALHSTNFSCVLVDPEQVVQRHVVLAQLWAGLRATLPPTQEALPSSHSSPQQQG

B1: SA301a HC-G55A (antibody, name in Kabat numbering, V domains shown)
VH: QVQLQESGPGLVKPSQTLSLTCTVSGYSITSDYNSHWIRQPPGKGLEWIGYIHYSASTNYNPSLKSRVTISRDTSKNQFSLKLSSVTAADTAVYYCARNYGSIYVNYFDYWGQGTLVTVSS
VL: EIVLTQSPATLSLSPGERATLSCSASSSVSYMYWYQQKPGQAPRPLIYRTSNLASGIPARFSGSGSGTDFTLTISSLEPEDFAVYYCQQYHSYPTFGGGTKVEIK
notes: IgG1 kappa
B2: SA301a HC-G55E (antibody, name in Kabat numbering, V domains shown)
VH: QVQLQESGPGLVKPSQTLSLTCTVSGYSITSDYNSHWIRQPPGKGLEWIGYIHYSESTNYNPSLKSRVTISRDTSKNQFSLKLSSVTAADTAVYYCARNYGSIYVNYFDYWGQGTLVTVSS
VL: EIVLTQSPATLSLSPGERATLSCSASSSVSYMYWYQQKPGQAPRPLIYRTSNLASGIPARFSGSGSGTDFTLTISSLEPEDFAVYYCQQYHSYPTFGGGTKVEIK
notes: IgG1 kappa
B3: SA301a HC-G55L (antibody, name in Kabat numbering, V domains shown)
VH: QVQLQESGPGLVKPSQTLSLTCTVSGYSITSDYNSHWIRQPPGKGLEWIGYIHYSLSTNYNPSLKSRVTISRDTSKNQFSLKLSSVTAADTAVYYCARNYGSIYVNYFDYWGQGTLVTVSS
VL: EIVLTQSPATLSLSPGERATLSCSASSSVSYMYWYQQKPGQAPRPLIYRTSNLASGIPARFSGSGSGTDFTLTISSLEPEDFAVYYCQQYHSYPTFGGGTKVEIK
notes: IgG1 kappa
B4: SA301a HC-G55M (antibody, name in Kabat numbering, V domains shown)
VH: QVQLQESGPGLVKPSQTLSLTCTVSGYSITSDYNSHWIRQPPGKGLEWIGYIHYSMSTNYNPSLKSRVTISRDTSKNQFSLKLSSVTAADTAVYYCARNYGSIYVNYFDYWGQGTLVTVSS
VL: EIVLTQSPATLSLSPGERATLSCSASSSVSYMYWYQQKPGQAPRPLIYRTSNLASGIPARFSGSGSGTDFTLTISSLEPEDFAVYYCQQYHSYPTFGGGTKVEIK
notes: IgG1 kappa
B5: SA301a HC-G55H (antibody, name in Kabat numbering, V domains shown)
VH: QVQLQESGPGLVKPSQTLSLTCTVSGYSITSDYNSHWIRQPPGKGLEWIGYIHYSHSTNYNPSLKSRVTISRDTSKNQFSLKLSSVTAADTAVYYCARNYGSIYVNYFDYWGQGTLVTVSS
VL: EIVLTQSPATLSLSPGERATLSCSASSSVSYMYWYQQKPGQAPRPLIYRTSNLASGIPARFSGSGSGTDFTLTISSLEPEDFAVYYCQQYHSYPTFGGGTKVEIK
notes: IgG1 kappa
B6: SA301a HC-G55F (antibody, name in Kabat numbering, V domains shown)
VH: QVQLQESGPGLVKPSQTLSLTCTVSGYSITSDYNSHWIRQPPGKGLEWIGYIHYSFSTNYNPSLKSRVTISRDTSKNQFSLKLSSVTAADTAVYYCARNYGSIYVNYFDYWGQGTLVTVSS
VL: EIVLTQSPATLSLSPGERATLSCSASSSVSYMYWYQQKPGQAPRPLIYRTSNLASGIPARFSGSGSGTDFTLTISSLEPEDFAVYYCQQYHSYPTFGGGTKVEIK
notes: IgG1 kappa
B7: SA301a HC-G55K (antibody, name in Kabat numbering, V domains shown)
VH: QVQLQESGPGLVKPSQTLSLTCTVSGYSITSDYNSHWIRQPPGKGLEWIGYIHYSKSTNYNPSLKSRVTISRDTSKNQFSLKLSSVTAADTAVYYCARNYGSIYVNYFDYWGQGTLVTVSS
VL: EIVLTQSPATLSLSPGERATLSCSASSSVSYMYWYQQKPGQAPRPLIYRTSNLASGIPARFSGSGSGTDFTLTISSLEPEDFAVYYCQQYHSYPTFGGGTKVEIK
notes: IgG1 kappa
B8: SA301a HC-G55D (antibody, name in Kabat numbering, V domains shown)
VH: QVQLQESGPGLVKPSQTLSLTCTVSGYSITSDYNSHWIRQPPGKGLEWIGYIHYSDSTNYNPSLKSRVTISRDTSKNQFSLKLSSVTAADTAVYYCARNYGSIYVNYFDYWGQGTLVTVSS
VL: EIVLTQSPATLSLSPGERATLSCSASSSVSYMYWYQQKPGQAPRPLIYRTSNLASGIPARFSGSGSGTDFTLTISSLEPEDFAVYYCQQYHSYPTFGGGTKVEIK
notes: IgG1 kappa
B9: SA301a LC-T96Y (antibody, V domains shown)
VH: QVQLQESGPGLVKPSQTLSLTCTVSGYSITSDYNSHWIRQPPGKGLEWIGYIHYSGSTNYNPSLKSRVTISRDTSKNQFSLKLSSVTAADTAVYYCARNYGSIYVNYFDYWGQGTLVTVSS
VL: EIVLTQSPATLSLSPGERATLSCSASSSVSYMYWYQQKPGQAPRPLIYRTSNLASGIPARFSGSGSGTDFTLTISSLEPEDFAVYYCQQYHSYPYFGGGTKVEIK
B10: SA301a LC-T96V (antibody, V domains shown)
VH: QVQLQESGPGLVKPSQTLSLTCTVSGYSITSDYNSHWIRQPPGKGLEWIGYIHYSGSTNYNPSLKSRVTISRDTSKNQFSLKLSSVTAADTAVYYCARNYGSIYVNYFDYWGQGTLVTVSS
VL: EIVLTQSPATLSLSPGERATLSCSASSSVSYMYWYQQKPGQAPRPLIYRTSNLASGIPARFSGSGSGTDFTLTISSLEPEDFAVYYCQQYHSYPVFGGGTKVEIK
B11: SA301a LC-T96K (antibody, V domains shown)
VH: QVQLQESGPGLVKPSQTLSLTCTVSGYSITSDYNSHWIRQPPGKGLEWIGYIHYSGSTNYNPSLKSRVTISRDTSKNQFSLKLSSVTAADTAVYYCARNYGSIYVNYFDYWGQGTLVTVSS
VL: EIVLTQSPATLSLSPGERATLSCSASSSVSYMYWYQQKPGQAPRPLIYRTSNLASGIPARFSGSGSGTDFTLTISSLEPEDFAVYYCQQYHSYPKFGGGTKVEIK
B12: SA301a LC-T96P (antibody, V domains shown)
VH: QVQLQESGPGLVKPSQTLSLTCTVSGYSITSDYNSHWIRQPPGKGLEWIGYIHYSGSTNYNPSLKSRVTISRDTSKNQFSLKLSSVTAADTAVYYCARNYGSIYVNYFDYWGQGTLVTVSS
VL: EIVLTQSPATLSLSPGERATLSCSASSSVSYMYWYQQKPGQAPRPLIYRTSNLASGIPARFSGSGSGTDFTLTISSLEPEDFAVYYCQQYHSYPPFGGGTKVEIK
B13: SA301a LC-T96M (antibody, V domains shown)
VH: QVQLQESGPGLVKPSQTLSLTCTVSGYSITSDYNSHWIRQPPGKGLEWIGYIHYSGSTNYNPSLKSRVTISRDTSKNQFSLKLSSVTAADTAVYYCARNYGSIYVNYFDYWGQGTLVTVSS
VL: EIVLTQSPATLSLSPGERATLSCSASSSVSYMYWYQQKPGQAPRPLIYRTSNLASGIPARFSGSGSGTDFTLTISSLEPEDFAVYYCQQYHSYPMFGGGTKVEIK
B14: SA301a LC-P95K (antibody, V domains shown)
VH: QVQLQESGPGLVKPSQTLSLTCTVSGYSITSDYNSHWIRQPPGKGLEWIGYIHYSGSTNYNPSLKSRVTISRDTSKNQFSLKLSSVTAADTAVYYCARNYGSIYVNYFDYWGQGTLVTVSS
VL: EIVLTQSPATLSLSPGERATLSCSASSSVSYMYWYQQKPGQAPRPLIYRTSNLASGIPARFSGSGSGTDFTLTISSLEPEDFAVYYCQQYHSYKTFGGGTKVEIK
B15: SA301a LC-P95N (antibody, V domains shown)
VH: QVQLQESGPGLVKPSQTLSLTCTVSGYSITSDYNSHWIRQPPGKGLEWIGYIHYSGSTNYNPSLKSRVTISRDTSKNQFSLKLSSVTAADTAVYYCARNYGSIYVNYFDYWGQGTLVTVSS
VL: EIVLTQSPATLSLSPGERATLSCSASSSVSYMYWYQQKPGQAPRPLIYRTSNLASGIPARFSGSGSGTDFTLTISSLEPEDFAVYYCQQYHSYNTFGGGTKVEIK
B16: SA301a LC-T96D (antibody, V domains shown)
VH: QVQLQESGPGLVKPSQTLSLTCTVSGYSITSDYNSHWIRQPPGKGLEWIGYIHYSGSTNYNPSLKSRVTISRDTSKNQFSLKLSSVTAADTAVYYCARNYGSIYVNYFDYWGQGTLVTVSS
VL: EIVLTQSPATLSLSPGERATLSCSASSSVSYMYWYQQKPGQAPRPLIYRTSNLASGIPARFSGSGSGTDFTLTISSLEPEDFAVYYCQQYHSYPDFGGGTKVEIK
B17: SA301a LC-P95E (antibody, V domains shown)
VH: QVQLQESGPGLVKPSQTLSLTCTVSGYSITSDYNSHWIRQPPGKGLEWIGYIHYSGSTNYNPSLKSRVTISRDTSKNQFSLKLSSVTAADTAVYYCARNYGSIYVNYFDYWGQGTLVTVSS
VL: EIVLTQSPATLSLSPGERATLSCSASSSVSYMYWYQQKPGQAPRPLIYRTSNLASGIPARFSGSGSGTDFTLTISSLEPEDFAVYYCQQYHSYETFGGGTKVEIK
B18: SA301a LC-T96I (antibody, V domains shown)
VH: QVQLQESGPGLVKPSQTLSLTCTVSGYSITSDYNSHWIRQPPGKGLEWIGYIHYSGSTNYNPSLKSRVTISRDTSKNQFSLKLSSVTAADTAVYYCARNYGSIYVNYFDYWGQGTLVTVSS
VL: EIVLTQSPATLSLSPGERATLSCSASSSVSYMYWYQQKPGQAPRPLIYRTSNLASGIPARFSGSGSGTDFTLTISSLEPEDFAVYYCQQYHSYPIFGGGTKVEIK
B19: SA301a LC-T96A (antibody, V domains shown)
VH: QVQLQESGPGLVKPSQTLSLTCTVSGYSITSDYNSHWIRQPPGKGLEWIGYIHYSGSTNYNPSLKSRVTISRDTSKNQFSLKLSSVTAADTAVYYCARNYGSIYVNYFDYWGQGTLVTVSS
VL: EIVLTQSPATLSLSPGERATLSCSASSSVSYMYWYQQKPGQAPRPLIYRTSNLASGIPARFSGSGSGTDFTLTISSLEPEDFAVYYCQQYHSYPAFGGGTKVEIK
B20: SA301a LC-T96E (antibody, V domains shown)
VH: QVQLQESGPGLVKPSQTLSLTCTVSGYSITSDYNSHWIRQPPGKGLEWIGYIHYSGSTNYNPSLKSRVTISRDTSKNQFSLKLSSVTAADTAVYYCARNYGSIYVNYFDYWGQGTLVTVSS
VL: EIVLTQSPATLSLSPGERATLSCSASSSVSYMYWYQQKPGQAPRPLIYRTSNLASGIPARFSGSGSGTDFTLTISSLEPEDFAVYYCQQYHSYPEFGGGTKVEIK
B21: SA301a LC-P95A (antibody, V domains shown)
VH: QVQLQESGPGLVKPSQTLSLTCTVSGYSITSDYNSHWIRQPPGKGLEWIGYIHYSGSTNYNPSLKSRVTISRDTSKNQFSLKLSSVTAADTAVYYCARNYGSIYVNYFDYWGQGTLVTVSS
VL: EIVLTQSPATLSLSPGERATLSCSASSSVSYMYWYQQKPGQAPRPLIYRTSNLASGIPARFSGSGSGTDFTLTISSLEPEDFAVYYCQQYHSYATFGGGTKVEIK

These binders were tested against T1, human IL-18BP (assay: BLI, apparent KD).
B1 showed a Kd of 0.75 nM.
For B2, the Kd was 0.4 nM.
For B3, the Kd was 1.72 nM.
Work on B4 yielded a Kd of 0.84 nM.
In the case of B5, the Kd is reported as 1.31 nM.
With B6 the Kd was 1.17 nM.
B7 was tested, and the Kd was 1.04 nM.
B8 showed a Kd of 1.37 nM.

Target: T1, human IL-18BP
Test: BLI, apparent KD
Remark: another data set of the same source
B9 was tested, and the Kd was 0.22 nM.
For B10, the Kd was 0.21 nM.
B11 gave a Kd of 0.05 nM.
Work on B12 yielded a Kd of 0.26 nM.
Binder B13 has a Kd of 0.19 nM.
With B14 the Kd was 0.22 nM.
For B15, the Kd was 0.32 nM.
With B16 the Kd was 0.13 nM.
Work on B17 yielded a Kd of 0.44 nM.
Binder B18 has a Kd of 0.12 nM.
B19 was tested, and the Kd was 0.17 nM.
Binder B20 has a Kd of 0.31 nM.
Binder B21 has a Kd of 0.26 nM.
